A short description of the data set: label from the status in PepcDB records.
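Further: failed if final PepcDB status was selected cloned or expressed and not failed if soluble or beyond.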

“MQLLPGPVRRFAAWCAVILLASGVVYVAIRLCVEFRTAVTPALLALLGTALLRPLHARLVKAHVQRSLAAGLTCAAVLAVVGGAVYIVVSALVETGDQIVTSLRDAAQGIADHFGAAGTSLDDLASNARELLGKFGGTAASGVVTGISVVGEMIAMAVLALLLVFFFLRDSDRAVTTVRALAPPGGADTVEAVARRAFGAVEGFMRGTTLIALIDAFCITVGLLVLRVPGAVGLGALVFVGAYIPYLGAFISGAVAVLVALADRGFVIALWALGVVLAVQVLEGHVLQPMIQSRTVQMHPAVVLLALTAGASVAGILGMLLAVPLTAAAFGVVHELQARYGVSTAASGPDAGPAPSTGAADS”: the protein production result is “failed”.

“MQLMRFDKPIGTLLLLHPTLWALFAAAGGIPSSSILIIFILGVIVMRAAGCVINDYADRHIDGKVKRTSQRPLATGRVTTVEAKVLFFVLLIIAFLLDLSLNQYAFLLSFVAVALAVIYPFMKRFTHLPQVVLGMAFGWAIPMAYGAVIEDLPLTCWLLFLANILWTVAYDTQYAMVDRDDDLRIGVKSTAILFAQYDNKIIALLQFLSLILFILFGWLSEYHIGYFIVLALTSTLFIYQCWLTKQRVREQCFKAFLNNNYFGFGIFIAILVGIYGF”: the protein production result is reported as “failed”.

Consider “MQLWIYGVLIRLVTPAVFVWLWLRGGKDSRYRQNWSERLALGSVDKKQHGCLVIHSVSVGETLAAKRLIEQLLRQEPGQKILITCMTPTARELIQQHFADTVSCRYWPIDSPGAAKRFVRKFKPKAVWVMETELWPQMLNQFSKANIPVALLNARLSARSAAGYRRFHWLMKKVWKQLTLVSVQNKETARRMKVLGVPDSVLFVDGNLKYDIELSVTDIEKALLWRQSCASRHVWLASSSHPGEHELLLEAHKLIQQDLSNSCLIIAPRHPEQFEVVAKMIRESGLKLARRSESNAIPEDCDVFLADSMGEMMLWGQLASASFVGGSIIERGGHNPLEVIAAGSNVMSGRHVFNFPQVYGELAKAGAVQWVNNAGEIKQAVELMQQTAVMKAQHEAAKSVLQTHQGATLRVLKRALEYTLTGSGMIKTEQSPQGLIRYDSDIFETIEDKHFTAQYWQQQKSIAGNSTGRATVWFIQQGDLGLLLRHYYRGGLVGKINKDRFLREPAEKSRAIHEFDLLLKLREIGLPVPRPVAARMEKTAVFSYKADILVEVIPGAVDVFRLLREKKLSAELWQKLGSVIKELHDTGVYHSDLNCHNLMLDDKDKAWIVDFDKCDFRENGDWKEANIQRLLRSLRKEKEKNETFYWKESRDWPELLTGYRR”, for which the protein production result was “failed”.

Regarding “MQNDFDRVFVLTGGPGSGKTTLIAALRRAGFATSVVAGRGIVRDQSSIGGTALPWSDRTLFAELMLSWEMRSYQNAVEQKGPVFFDRGVPETLGYLRLSGLPVADHVSTAAKRFRYNPRVFIAPPWPDIFAQDEERKQTPDEAKCTYHALAEIYTELGYELVPLPLAPVETRLRFVLADAGLEHHHHHH”, the protein production result is “failed”.

Consider “MQNLDRDVVIVGAGPSGLTAARELKKAGLSVAVLEARDRVGGRTWTDTIDGAMLEIGGQWVSPDQTVLMELLDELGLKMYSRYRDGESVYIGADGKRTQYTGDTFPVNETTKAEMDKLVAILDELAAEIGPTEPWAHPKARELDTISFHHWLRQNSNDEEACNNIGLFIAGGMLTKPAHAFSALQAVLMAASAGSFSHLTDEDFILDKRVIGGMQQVSLLQAAELGDDVVLNSPVRTIKWDENGVSVVSERATVNARFVIMAVPPNLYSRVSFDPPLPRRQHQMHQHQSLGLVIKVHAVYDTPFWREEGLSGTGFSAGALVQEVYDNTNHGDSRGTLVGFVSDEKADAVFELSAEDRKKAILESIAGFLGDKALTPEVYYESDWGSEEWTRGAYASSYDLGGLHRYGKDQHANVGPIYWSSSDLAAEGYQHVDGAVRMGQATAARIVEANKLASVPVA”, for which the protein production result is “not failed”.

For “MQNTPVILFDLDGTLIDSTEAVYEGFCVAFEKNGGAIPSQGKVVELIGHTLEDMFLRLGVPEVNITQHVLDYKAHYRIISKPKTNLLPKAREAILEASKFATLGVVTTKTGRFSRELLEYFEVLHFFKSIVGREDVTNAKPHPEPIFKALSEIGIKEVSAWMVGDTPLDLLAAQEAGIKSVAVLSGYAEEEMLRKYTLNVSKD”, the protein production entry is reported as “failed”.

On to “MQPILWILTLGISLNGVTSVTFLKQFNTSFLDFEIVGVPIIFALTIPLFGSFSSRLEFSNSTIYVVHLLSNRKIIYYFMGTDVIFYAIITFVNVLTVAGLSFILTSEGVNVIGLLAVLPLMLLGSLTSYSLGIIINSLFRNLSSPTSYLFSLIQVILILFSGVYYPLSYLPEYLRIIAFISPYSHLIALIRYILLGYNASDLNALWFYTLPYQVQVVLSISYVIVLGVILFILAGKRLVKGQGMVLL”, for which the protein production entry is given as “failed”.

As for “MQPVEASDYWELARLSQPAVSPTGDRVAYVRTTAERDGDTGQETASVHVAPVGGGGSRRFTAADGTDAEPAWSPTGDRLAFVSTRGDAGGGRPQLWVVPVDGGEATRITDVIGGVSNIAWGPDGDRVAFLQAVRPAERAEELDREHDGEYERDTPDPRVIDRQMYRGHTSYRDGARRHVYVADLAAGRVDRVTAGVAECGGPAWGDDGTLYYPIRRGLDADDRLEWAIEAATPADSADSTVVTTVEGMGPTLAVHGSRVAYTTTPADDPTLTQTAVEVFDRDTGATDRLTDGVDRTVAERTAGHAPEWGPDGEHLYVCTPDEGGYVLRRVAADTGDDRVVLAGDRHVHAFSVSADAVAVVQSEWDHPGEVVAATPMGGEEVTLTRANRDYLDERAVSKPESVWIDGPAGDIQGWVLTPPEFDPEETYPLVVNVHGGPHLMWSAAGTMWHEFQTLAARGYVVFWCNPRGSTGYGQEWLRAVERDWGAVTLADVMAGVAAVTDRDYVDADNAFITGGSFGGFMTGWAVGHTDAFAGAVAQRGVYDLTGFYGTTDAYALVEGEFDTDPVRDNAFLWAQSPAAHTDAVDTPTLLVHSEADYRTPANTAELFYRLLKKHGVDTRLVRYPGEGHDLSRSGDPGHVVDRIERIAAWFDGYSDHHEAAPVLETDRPGAAADE”, the protein production result was “failed”.

For “MQRERTAESSLRVISKEKNSITVEMINYDNTLLRTLVEEILKDDQVDEARYYIKHPVIDNPQIYVRVKSGKPQSAIKRAVRKLSKLYEDLGTQFQKEFQRYESDHMIKAVE”, the protein production result is on record as “not failed”.

Regarding “MQRFVCEQNIAHFQKLLETAEDEKLRRTLLGLLSSAKRELALLHSRLSGADLSPLAYRNRGGDLNSVLAQIRAGFDASDHPYMLIDAGPGLKIIDINDAYARATFTAREAIVGKPLFEIFPDNPAIDTADGVSNVYNSLRAVVETGEPHALAVQRYDMRNTEGVFVERYWQSINTPVRDAGGKLICLLHNVEDVTAEVLAN”, the protein production result is on record as “failed”.

Regarding “MQSAKEKISDMASTAKEKLNIGGAKAQGHAEKTMARTKKEKKLAQEREKSKEAQAKADLHQSKAEHAADAQVHGHHLPGHSTYPTRATGANYPPGQI”, the protein production result is on record as “failed”.

As for “MQSFWSKLKIESSKLLPSYFASVMAIGIFSIAFFLYNYNVLSYLLSYLSNVIYFALWVITVIRWVYYPRSYLNELKDLGRSPGFLSKVIATNTIGSEYMLIFKDYSLAYAFFMFGLILWIFYQYAVLSAISFNINDRNIEYVNGIWELIPASTQSVVDLGSILSPFHTYLYTLSLILFFIGVAQYIVMTSLILGRIVLKGLKPKDASGSYWIITGAAALSALAGIDLLIYLNEVNLQSAYIGDLRTIVLTFIILLWSTGTWWIPWLIYMGIWKHVINRVPLLVYDPQFWGAVFPMGMYATSSFLLIRYVNLNIPMLIPDIFILVGSVALVYQTSLMLYNVVKKLVD”, the protein production entry is recorded as “failed”.

In the case of “MQSSQVKSAMRALEIMEFFRAVKQPRSMSEISIALGYPQSSTTVLLKTLISLGYLNFNRKERLYFPTLKVSALGDWIANSLFSSRDILEVLQDIHMETGETVAIATKNDIYLQYIQIIESVHALRFHVDENAIRPLTMSSNGWMLMSTMNDKAIDNTVRRANTITQKDGIRFEVDDMMARIRQVREQGYASAEHIPFVGGGTICVLLPMTIQGQPVTMGLGGALDRIKQNYDRYLELLLNGVQQLKKSDSFHQPIELAH”, the protein production entry is “failed”.

On to “MQSVEDKTFCLQTLSANPLAASATGLLPLAEVVIRGIDLPYAKLLVKSADRAIEKIPALKEQFKECQDSFLRIVMSLKSAASELKVSPDTANYDAMICFDETKRVKEVIGKNEDVTSKSLIEMTLRMEKLIFLALGATEVVGG”, for which the protein production result is “failed”.

With “MQTEIITQLVLIFPEILIALGGITLLLFGVYSKASSSLTVTGLAIALFVATIVIIIIFPKSGLFQTNALIIDSFGRYMKILTLIGALFALIMSVNFTSTQKFDIFEFPVLVLLATLGMMLMISAGNMLSLYMGLELQSLALYVLAAINRNNIKSSEAGIKYFALGALSSGLLLYGISLVYGFTGQIGFREIAVALKGENLPLGVIFGIVFILAGLAFKISAVPFHMWTPDVYEGAPTPITAFFAGAPKVAAMALIVRIIVMTFIPLENTDGSMPAWQQILVFMAIASMILGAFAAIGQSNIKRLMAYSSISHMGYALVGLASGDMLGIKSVILYMTIYLSMTIGSFAFILGMRSSDGNVEDIYDLSGLVKTNPFMAITMTIQLFSLASIPPMAGFFGKWYTFSAAVHAGLTPLAIVGMIASVVGAFYYLRLIKIMWFDDAKAHFIVLSNEFRFCLSFSAFFILSYTLFGIWFADLAERAATALF”, the protein production entry was “failed”.

Regarding “MQTKVINFNDKFSLFNQHWSPRVIAEMNDYQFKLVKVEGEFVWHEHADTDEVFIVMEGTLQIAFRDQNITLQAGEMYVIPKGVEHKPMAKEECKIMIIEPR”, the protein production result is listed as “not failed”.

Turning to “MQTLNVLDNRFSPFNTYSTLSTDALVAETFTNTIFDKRQILALMTQLQTTLDIDELLSIFAVEATRYVDFSGLYFKSQNLNTVLFGSRKAKKEQCFELKIEDNFIGTLSYGINSPISLTNFKVLEQLHLCLLHPIKNAIAYHTAMQLAMQDGLTGLGNRRYFDEQLKRSMHNANRHHSLVGLVLGDLNKFKAINDTHGHIAGDTVLQEFANVLRLCTRDSDSLFRFGGDEFAIIVENANDTALAIIENRINLALASNVQLNKYQLGCSIGSTFMNRADNELSFFERADEILYRRKMQVSSHLSVV”, the protein production entry is “failed”.

For the sequence “MQTSNITNHERNDSSWMSTVKSTTEVSWNKLSFCDILLKIITFGIYSPHETLAEKHSEKKLMDSFSPSLSQDKMDGEFAHANIDGISIRLCLNKGICSVFYLDGDKIQSTQLSSKEYNNLLSSLPPKQFNLGKVHTITAPVSGNFKTHKPAPEVIETAINCCTSIIPNDDYFHVKDTDFNSVWHDIYRDIRASDSNSTKIYFNNIEIPLKLIADLINELGINEFIDSKKELQMLSYNQVNKIINSNFPQQDLCFQTEKLLFTSLFQDPAFISALTSAFWQSLHITSSSVEHIYAQIMSENIENRLNFMPEQRVINNCGHIIKINAVVPKNDTAISASGGRAYEVSSSILPSHITCNGVGINKIETSYLVHAGTLPSSEGLRNAIPPESRQVSFAIISPDV”, the protein production result is “not failed”.

Turning to “MQTTEIDLRLTEVSQQLTMVLVPGLRDSDDEHWQSHWERRFPHWQRIRQREWYQADLDRWVLAIRRELSVCTQPVILIGHSFGALAACHVVQQGQEGIAGVMLVAPAEPMRFEIDDRIQASPLSVPTLTFASHNDPLMSFTRAQYWAQAWDSELVDVGEAGHINAEAGFGPWEYGLKRLAEFSEILIPNR”, the protein production result is recorded as “not failed”.

Take “MQTVPSSDGTPIAFERSGSGPPVVLVGGALSTRAGGAPLAERLAPHFTVICYDRRGRGDSGDTPPYAVEREIEDLAAIIDAAGGAAFVFGMSSGAGLSLLAAASGLPITRLAVFEPPYAVDDSRPPVPPDYQTRLDALLAEGRRGDAVTYFMTEGVGVPPDLVAQMQQAPMWPGMEAVAHTLPYDHAVMGDNTIPTARFASISIPTLVMDGGASPAWIRHTAQELADTIPNARYVTLENQTHTVAPDAIAPVLVEFFTR”: the protein production result is listed as “not failed”.

The values are drawn from a protein production outcome set (Wang et al. 2014).
